Measured values as given in US20140322220A1 (Bayer, published 2014).
Numbered stars: 1 amine (or outer) side, 2 acyl side, 3 side chain; on linkers, the order of the positions; unused ones are H or OH. Square brackets hold non-standard residues; d marks the D form. Ends that are not written are not given here. * marks the point of attachment. Biotin = O=C1N[C@H]2[C@H](CS[C@H]2CCCCC(=O)*)N1; Ttds = O=C(CCC(=O)[*:2])NCCCOCCOCCOCCCN[*:1]

B1: M048-D01-mIgG2a (antibody)
heavy: EVQLLESGGGLVQPGGSLRLSCAASGFTFSSYAMSWVRQAPGKGLEWVSAISGSGTSTYYADSVKGRFTISRDNSKNTLYLQMNSLRAEDTAVYYCARVRYNWNHGDWFDPWGQGTLVTVSSAKTTAPSVYPLAPVCGDTTGSSVTLGCLVKGYFPEPVTLTWNSGSLSSGVHTFPAVLQSDLYTLSSSVTVTSSTWPSQSITCNVAHPASSTKVDKKIEPRGPTIKPCPPCKCPAPNLLGGPSVFIFPPKIKDVLMISLSPIVTCVVVDVSEDDPDVQISWFVNNVEVHTAQTQTHREDYNSTLRVVSALPIQHQDWMSGKEFKCKVNNKDLPAPIERTISKPKGSVRAPQVYVLPPPEEEMTKKQVTLTCMVTDFMPEDIYVEWTNNGKTELNYKNTEPVLDSDGSYFMYSKLRVEKKNWVERNSYSCSVVHEGLHNHHTTKSFSRTPGK
VL: QSVLTQPPSASGTPGQRVTISCSGSSSNIGNNYVSWYQQLPGTAPKLLIYENYNRPAGVPDRFSGSKSGTSASLAISGLRSEDEADYYCSSWDDSLNYWVFGGGTKLTVL
notes: Murine IgG2a format of M048-D01
B2: M021-H02-hIgG1 (antibody, V domains shown)
VH: EVQLLESGGGLVQPGGSLRLSCAASGFTFSNYGIHWVRQAPGKGLEWVAVISYDGSNKYYADSVKGRFTISRDNSKNTLYLQMNSLRAEDTAMYYCARDSSSAEDYWGQGTLVTVSS
VL: QSVLTQPPSASGTPGQRVTISCSGSSSNTGSNTVNWYQQLPGTAPKLLIYRNNQRPSGVPDRFSGSKSGTSASLAISGLRSEDEADYYCETWDSNTRGVVFGGGTKLTVL
notes: Human IgG1; also called M021-1-102-hIgG1; M021-1-102
B3: TPP-1397 (antibody, human IgG1, lambda, V domains shown)
VH: EVQLLESGGGLVQPGGSLRLSCAASGFTFSSYAMSWVRQAPGKGLEWVSAISKSGGSTFYADSVKGRFTISRDNSKNTLYLQMNSLRAEDTAVYYCARVRYIWGEGDWFDPWGQGTLVTVSS
VL: AQSVLTQPPSASGTPGQRVTISCSGSSSNIGENYVSWYQQLPGTAPKLLIYENYKRSSGVPDRFSGSKSGTSASLAISGLRSEDEADYYCAAWDDSLNSWVFGGGTKLTVLG
notes: Matured variant of M048-D01
B4: TPP-1399 (antibody, human IgG1, lambda, V domains shown)
VH: EVQLLESGGGLVQPGGSLRLSCAASGFTFSSYAMSWVRQAPGKGLEWVSAISKSGGSTFYADSVKGRFTISRDNSKNTLYLQMNSLRAEDTAVYYCARVRYKWGEGDWFDPWGQGTLVTVSS
VL: AQSVLTQPPSASGTPGQRVTISCSGSSSNIGENYVSWYQQLPGTAPKLLIYENYKRPSGVPDRFSGSKSGTSASLAISGLRSEDEADYYCAAWDDSGNSWVFGGGTKLTVLG
notes: Matured variant of M048-D01
B5: TPP-1398 (antibody, human IgG1, lambda, V domains shown)
VH: EVQLLESGGGLVQPGGSLRLSCAASGFTFSSYAMSWVRQAPGKGLEWVSAISRSGGSTYYADSVKGRFTISRDNSKNTLYLQMNSLRAEDTAVYYCARVRYIWNEGDWFDPWGQGTLVTVSS
VL: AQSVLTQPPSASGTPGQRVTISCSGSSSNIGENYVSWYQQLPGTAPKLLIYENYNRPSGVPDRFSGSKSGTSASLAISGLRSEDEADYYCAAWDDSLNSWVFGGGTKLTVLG
notes: Matured variant of M048-D01
B6: TPP-1401 (antibody, human IgG1, lambda, V domains shown)
VH: EVQLLESGGGLVQPGGSLRLSCAASGFTFSSYAMSWVRQAPGKGLEWVSAISKSGGSTFYADSVKGRFTISRDNSKNTLYLQMNSLRAEDTAVYYCARVRYIWNEGDWFDPWGQGTLVTVSS
VL: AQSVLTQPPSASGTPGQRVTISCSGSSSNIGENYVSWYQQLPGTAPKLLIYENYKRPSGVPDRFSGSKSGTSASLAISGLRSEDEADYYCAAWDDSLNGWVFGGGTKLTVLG
notes: Matured variant of M048-D01
B7: TPP-1402 (antibody, human IgG1, lambda, V domains shown)
VH: EVQLLESGGGLVQPGGSLRLSCAASGFTFSSYAMSWVRQAPGKGLEWVSAISKSGGSTFYADSVKGRFTISRDNSKNTLYLQMNSLRAEDTAVYYCARVRYIWNHGDWFDPWGQGTLVTVSS
VL: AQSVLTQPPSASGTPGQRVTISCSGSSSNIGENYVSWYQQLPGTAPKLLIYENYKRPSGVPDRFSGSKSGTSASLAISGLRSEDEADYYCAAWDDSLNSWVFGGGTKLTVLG
notes: Matured variant of M048-D01
B8: TPP-1400 (antibody, human IgG1, lambda, V domains shown)
VH: EVQLLESGGGLVQPGGSLRLSCAASGFTFSSYAMSWVRQAPGKGLEWVSAISRSGGSTYYADSVKGRFTISRDNSKNTLYLQMNSLRAEDTAVYYCARVRYIWNEGDWFDPWGQGTLVTVSS
VL: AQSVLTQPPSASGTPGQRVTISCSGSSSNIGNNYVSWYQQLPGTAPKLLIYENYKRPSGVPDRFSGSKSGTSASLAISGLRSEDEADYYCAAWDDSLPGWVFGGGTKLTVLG
notes: Matured variant of M048-D01
B9: M054-A05-hIgG1 (antibody, V domains shown)
VH: EVQLLESGGGLVQPGGSLRLSCAASGFTFSNYGMYWVRQAPGKGLEWVAVISYDGTNKYYVDSVKGRFTISRDNSKNTLYLQMNSLRAEDTAVYYCAKDLPKWGGFDSWGQGTLVTVSS
VL: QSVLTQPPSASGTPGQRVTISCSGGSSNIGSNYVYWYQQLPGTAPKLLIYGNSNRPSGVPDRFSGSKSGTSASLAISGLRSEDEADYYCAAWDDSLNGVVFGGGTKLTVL
notes: Human IgG1
B10: M054-D03-hIgG1 (antibody, V domains shown)
VH: EVQLLESGGGLVQPGGSLRLSCAASGFTFSNYGMHWVRQAPGKGLEWVAVISYDGSNKYYADSVKGRFTISRDNSKNTLYLQMNSLRAEDTAVYYCAKETNDVPFDYWGQGTLVTVSS
VL: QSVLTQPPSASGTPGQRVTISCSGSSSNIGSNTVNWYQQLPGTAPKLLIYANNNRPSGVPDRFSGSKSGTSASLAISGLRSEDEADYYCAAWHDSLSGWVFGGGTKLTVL
notes: Human IgG1
B11: TPP-1408 (antibody, human IgG1, lambda, V domains shown)
VH: EVQLLESGGGLVQPGGSLRLSCAASGFTFSHSGMHWVRQAPGKGLEWVAVISYDGSNKYYADSVKGRFTISRDNSKNTLYLQMNSLRAEDTAVYYCAREQPVYDFEYWGQGTLVTVSS
VL: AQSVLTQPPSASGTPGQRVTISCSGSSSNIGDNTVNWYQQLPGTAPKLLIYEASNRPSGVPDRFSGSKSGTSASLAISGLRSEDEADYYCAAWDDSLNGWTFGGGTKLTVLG
notes: Matured variant of M047-D08
B12: M017-B02-hIgG1 (antibody, V domains shown)
VH: EVQLLESGGGLVQPGGSLRLSCAASGFTFRTSGMHWVRQAPGKGLEWVAVISYDGSNKYYADSVKGRFTISRDNSKNTLYLQMNSLRAEDTAVYYCARESPGYDFEYWGQGTLVTVSS
VL: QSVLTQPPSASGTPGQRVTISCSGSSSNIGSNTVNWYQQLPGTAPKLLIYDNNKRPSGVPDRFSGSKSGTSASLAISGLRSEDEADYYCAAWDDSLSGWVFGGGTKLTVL
notes: Human IgG1

What was measured:
[1] = target: T1, RPSFSLVEDTTLEPEG-Ttds-Lys(Biotin) (human); assay: peptide ELISA, IgG titration, anti-mouse IgG (Fc specific) POD detection
T1 construct: Synthesized by JPT Peptide Technology
T1 peptide: RPSFSLVEDTTLEPEG[Ttds]K(Biotin)

rat FGFR2 on RUCA cells = target: T2, rat FGFR2 on RUCA cells (rat, UniProt F1LNW0 41-840); assay: FACS, 5 ug/ml, RUCA cells
T2 construct: whole, on cells
Experimental: (§1) To determine the binding characteristics of the anti-FGFR2 antibodies on mouse, rat and human cancer cell lines, binding was tested by flow cytometry to a panel of cell lines. Adherent cells were washed twice with PBS (without Ca and Mg) and detached by enzyme-free PBS based cell dissociation buffer (Invitrogen). Cells were suspended at approximately 10⁵ cells/well in FACS buffer (PBS without Ca/Mg, Biochrom containing 3% FCS, Biochrom). Cells were centrifuged (250 g, 5 min, 4° C.) and supernatant discarded. Cell were resuspended in dilutions of the antibodies of interest (5 μg/ml in 80 μl if not indicated otherwise) in FACS buffer, and incubated on ice for 1 h. […] After incubation for 1 h on ice cells were again washed with cold FACS buffer, resuspended in 100 μl FACS buffer and analyzed by flow cytometry using a FACS-Array (BD Biosciences). Results are calculated as Geo Mean of the detection by the antibody of interest subtracted by background fluorescence as measured by detection with the secondary antibody alone.

[2] = target: T3, mutated human FGFR2 on MFE-296 cells (human, UniProt P21802 22-821); assay: FACS, 5 ug/ml, MFE296 cells
T3 construct: whole, on cells
T3 sequence (P21802 other isoform, or with tags, fused parts or gaps limits assumed, change not shown): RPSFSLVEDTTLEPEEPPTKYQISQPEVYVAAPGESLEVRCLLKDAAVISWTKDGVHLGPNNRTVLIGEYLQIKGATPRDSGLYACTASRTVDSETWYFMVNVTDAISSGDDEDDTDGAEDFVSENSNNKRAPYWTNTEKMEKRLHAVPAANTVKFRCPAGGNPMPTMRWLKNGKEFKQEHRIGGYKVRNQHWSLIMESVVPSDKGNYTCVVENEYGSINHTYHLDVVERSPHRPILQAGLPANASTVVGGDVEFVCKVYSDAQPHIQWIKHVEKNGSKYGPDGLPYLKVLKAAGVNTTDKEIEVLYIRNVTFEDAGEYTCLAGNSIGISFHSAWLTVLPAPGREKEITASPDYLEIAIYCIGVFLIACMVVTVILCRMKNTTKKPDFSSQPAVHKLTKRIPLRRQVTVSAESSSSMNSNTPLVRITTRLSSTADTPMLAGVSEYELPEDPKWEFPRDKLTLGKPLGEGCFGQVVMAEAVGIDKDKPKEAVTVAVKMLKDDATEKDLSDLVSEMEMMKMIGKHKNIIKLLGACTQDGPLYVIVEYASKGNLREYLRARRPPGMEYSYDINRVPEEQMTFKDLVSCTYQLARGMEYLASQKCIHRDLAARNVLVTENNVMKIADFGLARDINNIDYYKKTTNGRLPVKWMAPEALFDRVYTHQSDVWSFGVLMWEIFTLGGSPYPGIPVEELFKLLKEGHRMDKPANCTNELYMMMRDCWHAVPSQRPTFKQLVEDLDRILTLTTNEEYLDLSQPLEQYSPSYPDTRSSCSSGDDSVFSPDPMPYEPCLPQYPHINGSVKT
Experimental: as §1

[3] = target: T4, recombinant human FGFR2 (Met 1-Glu 377) with C-terminal polyhistidine tag (human, UniProt P21802 22-377); assay: protein binding ELISA; against TPP-1403
T4 construct: The range is that of the expressed DNA and begins at Met 1; also called His-tagged FGFR2; recombinant human FGFR2-IIIc molecule
Excerpt: (§2) Two different types of ELISA were used to determine the binding improvement of mutated variants: a) Peptide Binding ELISA: a synthetic peptide comprising the amino acid sequence of the epitope linked C-terminally to a biotinylated lysine […]-Ttds-Lys(Biotin) (peptide sequence derived from SEQ ID NO:63, synthesized by JPT Peptide Technology GmbH, Berlin, Germany), and b) Recombinant Protein Binding ELISA: recombinant human FGFR2 (DNA sequence of human FGFR2 (NP 000132.3) Met 1-Glu 377, fused with a polyhistidine tag at the C-terminus; #10824-1-1081-1, Sin θ Biological Inc., Beijing, China).
(§3) Briefly, in both ELISA formats MTP plates (384 well Maxisorp, Nunc) were coated with 20 μl, anti-human IgG Fc specific (#12136; sigma) at 2.2 μg/ml for 2.5 h at 37° C. in coating buffer (#121125 Candor Bioscience GmbH). […] Anti-FGFR2 variants were immobilized in concentrations of 0.035 μg/ml (peptide based assay) or 0.2 μg/ml (recombinant human FGFR2 protein based assay) in 10% Smart Block in PBST depending on the format and variants to be analyzed by incubation of 20 μl for one hour at 20-22° C. After one washing step using 50 μl PBST, 20 μl quadruplets of the antigen dilution series in 10% SmartBlock in PBST with a maximum concentration of 100 nM were added and incubated for 1 h at 20-22° C. and the washing step was repeated 3 times. For the detection of the biotinylated epitope peptide 20 μl of streptavidine/POD conjugate (# S5512, Sigma) in a 1:1000 dilution in 10% SmartBlock in PBST were applied for one hour at 20-22° C. For the detection of the recombinant FGFR2 protein 20 μl of anti-His/HRP conjugate (#71840, novagen) in a 1:10000 dilution in 10% SmartBlock in PBST were applied for one hour at 20-22° C. After 3 washing steps 20 μl of 10 μM amplex red substrate (# A12222, Invitrogen) in 50 mM Sodium hydrogen phosphate, pH 7.6, were added and the fluorescence signal was detected using a common fluorescence reader, e.g. Tecan M1000. EC50 values were evaluated by fitting the data (Sigmoida) dose-response, variable slope, bottom set to background; GraphPad Prism software).

[4] = target: T4, recombinant human FGFR2 (Met 1-Glu 377) …; assay: protein binding ELISA, antibody captured by anti-human IgG Fc, FGFR2-His titrated
Excerpt: as §2, §3

[5] = target: T1, RPSFSLVEDTTLEPEG-Ttds-Lys(Biotin); assay: peptide binding ELISA, antibody captured by anti-human IgG Fc, biotinylated peptide titrated
Excerpt: as §2, §3

[6] = target: T1, RPSFSLVEDTTLEPEG-Ttds-Lys(Biotin); assay: peptide binding ELISA, antibody captured by anti-human IgG Fc, biotinylated peptide titrated; against TPP-1403
Excerpt: as §2
(§4) Briefly, in both ELISA formats MTP plates (384 well Maxisorp, Nunc) were coated with 20 μl, anti-human IgG Fc specific (#12136; sigma) at 2.2 μg/ml for 2.5 h at 37° C. in coating buffer (#121125 Candor Bioscience GmbH). […] Anti-FGFR2 variants were immobilized in concentrations of 0.035 μg/ml (peptide based assay) or 0.2 μg/ml (recombinant human FGFR2 protein based assay) in 10% Smart Block in PBST depending on the format and variants to be analyzed by incubation of 20 μl for one hour at 20-22° C. […] After 3 washing steps 20 μl of 10 μM amplex red substrate (# A12222, Invitrogen) in 50 mM Sodium hydrogen phosphate, pH 7.6, were added and the fluorescence signal was detected using a common fluorescence reader, e.g. Tecan M1000. […]

[7] = target: T1, RPSFSLVEDTTLEPEG-Ttds-Lys(Biotin); assay: peptide binding ELISA; against TPP-1403
Excerpt: as §2, §3

[8] = target: T5, mutated human FGFR2 on AN3-CA cells (human, UniProt P21802 22-821); assay: FACS, 5 ug/ml, AN3CA cells
T5 construct: whole, on cells; also called AN3-CA (DSMZ-ACC 267)
T5 sequence (P21802 other isoform, or with tags, fused parts or gaps limits assumed, change not shown): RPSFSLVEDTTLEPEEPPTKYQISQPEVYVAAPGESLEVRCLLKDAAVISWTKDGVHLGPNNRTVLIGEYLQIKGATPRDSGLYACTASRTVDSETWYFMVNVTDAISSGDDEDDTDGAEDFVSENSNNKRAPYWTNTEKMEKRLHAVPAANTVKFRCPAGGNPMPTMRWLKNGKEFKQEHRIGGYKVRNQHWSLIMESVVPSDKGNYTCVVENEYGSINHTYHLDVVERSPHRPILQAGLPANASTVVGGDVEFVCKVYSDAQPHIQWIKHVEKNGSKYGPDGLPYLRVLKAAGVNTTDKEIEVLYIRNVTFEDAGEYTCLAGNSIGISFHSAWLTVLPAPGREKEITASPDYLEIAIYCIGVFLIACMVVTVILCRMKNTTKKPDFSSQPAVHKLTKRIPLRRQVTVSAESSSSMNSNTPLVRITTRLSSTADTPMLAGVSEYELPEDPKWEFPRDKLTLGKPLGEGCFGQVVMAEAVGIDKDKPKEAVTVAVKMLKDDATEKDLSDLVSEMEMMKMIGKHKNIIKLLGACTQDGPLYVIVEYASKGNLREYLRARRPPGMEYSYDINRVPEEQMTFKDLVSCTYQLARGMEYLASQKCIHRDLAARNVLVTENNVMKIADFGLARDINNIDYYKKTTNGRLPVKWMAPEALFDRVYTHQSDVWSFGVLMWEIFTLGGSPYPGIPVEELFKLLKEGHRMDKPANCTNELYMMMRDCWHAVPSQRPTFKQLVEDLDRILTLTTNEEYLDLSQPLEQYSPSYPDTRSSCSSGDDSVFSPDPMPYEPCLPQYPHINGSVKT
Experimental: as §1

[9] = target: T1, RPSFSLVEDTTLEPEG-Ttds-Lys(Biotin); assay: peptide binding ELISA; against TPP-1415
Excerpt: as §2, §4

[10] = target: T4, recombinant human FGFR2 (Met 1-Glu 377) …; assay: protein binding ELISA; against TPP-1415
Excerpt: as §2, §3
Target sequence in this assay (P21802 22-377 limits assumed): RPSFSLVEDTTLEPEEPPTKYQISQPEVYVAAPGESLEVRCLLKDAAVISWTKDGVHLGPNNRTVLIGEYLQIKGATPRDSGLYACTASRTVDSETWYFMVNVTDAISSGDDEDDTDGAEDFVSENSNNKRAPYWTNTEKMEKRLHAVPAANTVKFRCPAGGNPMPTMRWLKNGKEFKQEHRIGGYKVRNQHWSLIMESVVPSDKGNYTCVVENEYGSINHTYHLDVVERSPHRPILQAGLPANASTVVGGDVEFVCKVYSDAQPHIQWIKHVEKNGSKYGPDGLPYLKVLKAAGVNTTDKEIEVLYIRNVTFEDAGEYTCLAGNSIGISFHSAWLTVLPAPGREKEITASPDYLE

| Binder | Geo Mean minus Geo Mean of secondary antibody alone (FACS) [2] | fold EC50 reduction [3] | EC50 [4] | EC50 [5] | fold EC50 reduction [7] | also measured |
| --- | --- | --- | --- | --- | --- | --- |
| B1 |  |  |  |  |  | EC50 [1]: ≤ 1 nM |
| B2 | 100 to 1000 geomean |  |  |  |  | Geo Mean minus Geo Mean of secondary antibody alone (FACS) (rat FGFR2 on RUCA cells): 100 to 1000 geomean |
| B3 |  | 40 fold | 0.2 nM | 0.004 nM |  | fold EC50 reduction [6]: > 2300 fold |
| B4 |  | 39 fold | 0.21 nM | 0.006 nM | > 1500 fold |  |
| B5 |  | 39 fold | 0.2 nM | 0.005 nM | > 2000 fold |  |
| B6 |  | 39 fold | 0.2 nM | 0.006 nM | > 1700 fold |  |
| B7 |  | 37 fold | 0.22 nM | 0.007 nM | > 1500 fold |  |
| B8 |  | 17 fold | 0.48 nM | 0.009 nM | > 1100 fold |  |
| B9 | 1000 to 10000 geomean |  |  |  |  | Geo Mean minus Geo Mean of secondary antibody alone (FACS) [8]: 100 to 1000 geomean |
| B10 | 100 to 1000 geomean |  |  |  |  | Geo Mean minus Geo Mean of secondary antibody alone (FACS) (rat FGFR2 on RUCA cells): 100 to 1000 geomean |
| B11 |  |  | 0.29 nM | 2.5 nM |  | fold EC50 reduction [9]: > 4 fold; fold signal [9]: 10 fold; fold EC50 reduction [10]: 27 fold |
| B12 | 1000 to 10000 geomean |  |  |  |  | Geo Mean minus Geo Mean of secondary antibody alone (FACS) (rat FGFR2 on RUCA cells): 100 to 1000 geomean; Geo Mean minus Geo Mean of secondary antibody alone (FACS) [8]: 100 to 1000 geomean |
